Measurements reported in the supplement of paper PMC10567573.

B1: C2CD2L (parent)
chain: LTLKVLRSSSCGDTELLGQATLPV

Variants of: B1
Test: protein stability index of a GFP-peptide fusion (GPS, HEK-293T) (PSI 1-6); higher = more stable
Conditions: c terminus: a fixed tail appended
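Also: lentivirally expressed fusions sorted by FACS into six bins by GFP to DsRed ratio, PSI derived from sequencing read proportions per bin multiplied by bin number.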

Protein stability index, by site and new letter:
A20: L 2.33; D 1.45; I 2.35; W 3.17
R7: K 3.05; A 1.19; D 2.02; P 2.08; M 2.32; C 3.71
L1: C 2.58; M 2.63; Y 1.77; G 2.56; E 2.76; F 1; I 2.76
S9: N 1.82; Q 1.43; F 2.54; E 1.1; L 1.16; I 2.11; H 2.94; M 3.09
K4: F 2.97; M 1.06; H 1.65; D 1.94; P 2.66
L3: T 2.71; W 2.45; E 3.55; F 2.31; D 3.35; K 3.07
E15: Q 2.47; D 1.41; S 3.58; I 3.24; F 3.12; P 2.61; L 3.22; A 3.85
L16: Q 1.78; P 1.97; Y 1.37; M 1.86; C 2.07; R 1.8
V24: N 1.92; G 2.02; S 1.98; E 1.54; Q 1.82; M 4.58
L22: S 1.61; K 1.97; C 2.52; D 2.67; N 2.32; E 1.74; A 2.46
D13: S 2.38; Y 2.16; P 2.02; I 3.63; R 1.47; Q 2.24
G12: A 1.66; Y 1.42; I 2.27; Q 2.12; E 1.88; N 1.56; D 2.05; L 2.82; R 2.71; W 3.06
L6: Q 2.59; R 2.03; P 2.24; G 1.96; F 2.21; V 3.39; A 3.16
T2: H 1.3; P 2.8; E 1.92; A 1.66; G 1.93; I 2.9; Q 2.93
L17: C 2.18; D 2.89; V 2.44; R 1.35; H 1.24; N 3.12; I 2.4; P 2.15; W 2.04
P23: A 3.27; G 4.54
G18: S 1.97; E 2.26; P 2.11; R 2.06; D 2.28; F 2.89; K 1.71; N 2.11; L 3.01
S8: D 1.93; E 1.72
S10: K 3.12; D 2; F 2.93; E 1.75; A 3.7; H 3; W 4.07; I 1.76
Q19: G 1.91; I 4.42; K 2.78; H 2.94; N 3.21; T 1.59; D 1.61
T14: S 1.8; C 1.79; H 2.47; D 2.2; Y 3.11; P 2.74; R 2.06; K 1.04; E 2.58; N 1.91
T21: F 3.74; N 2.36; L 2.39; R 3.3; G 2.94; K 2.08; Y 3.37; D 1.57; P 2.22
C11: I 4.68; L 2.78; N 2.04; G 2.58; V 2.53; R 1.9; S 3.41; T 2.36
V5: I 2.08; F 1.86; E 2.82; Y 2.69; R 2.05; T 1.83; S 2.11; C 1.76; A 2.3; G 2.52
